Drawing on article PMC7854603, “Nucleic acid binding by SAMHD1 contributes to the antiretroviral activity and is enhanced by the GpsN modification”, this text covers binding result and binding signal for nine molecules.

In data set [1] the target is T1, SAMHD1 HD domain WT (UniProt Q9Y3Z3 114-626). Briefly: fluorescence anisotropy; FA: 50 mM Tris pH 8, 100 mM NaCl, 5 mM MgCl2, 1 mM TCEP, 50 nM 6FAM-oligo (salt series with KCl 50-150 mM); SEC same buffer; NMR: 50 mM Tris pH 7.5, 150 mM NaCl, 5 mM MgCl2, 10% D2O; temperature not stated. The conditions noted are these: protein: recombinant; chain copies: 2; label: 5'-6FAM; single strand.
T1 sequence (Q9Y3Z3 114-626): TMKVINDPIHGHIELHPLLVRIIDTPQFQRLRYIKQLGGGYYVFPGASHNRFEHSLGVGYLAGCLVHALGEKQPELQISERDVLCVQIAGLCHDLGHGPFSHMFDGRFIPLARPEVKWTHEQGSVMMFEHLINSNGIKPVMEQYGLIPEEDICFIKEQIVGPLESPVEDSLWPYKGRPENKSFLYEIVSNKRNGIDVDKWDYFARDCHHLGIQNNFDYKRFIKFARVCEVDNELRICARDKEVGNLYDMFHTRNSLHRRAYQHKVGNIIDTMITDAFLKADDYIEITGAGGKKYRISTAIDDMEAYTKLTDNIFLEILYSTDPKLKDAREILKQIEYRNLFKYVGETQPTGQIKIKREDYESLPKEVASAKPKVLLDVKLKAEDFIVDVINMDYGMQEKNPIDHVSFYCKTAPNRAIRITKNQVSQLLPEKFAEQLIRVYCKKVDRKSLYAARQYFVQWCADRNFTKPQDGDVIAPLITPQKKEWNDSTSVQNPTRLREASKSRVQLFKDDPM

Data set [2] addresses T1, SAMHD1 HD domain WT. In words: X-ray crystallography; FA: 50 mM Tris pH 8, 100 mM NaCl, 5 mM MgCl2, 1 mM TCEP, 50 nM 6FAM-oligo (salt series with KCl 50-150 mM); SEC same buffer; NMR: 50 mM Tris pH 7.5, 150 mM NaCl, 5 mM MgCl2, 10% D2O; temperature not stated. The conditions noted are these: protein: recombinant; chain copies: 2; single strand.
Data set [3] concerns the target T1, SAMHD1 HD domain WT. In words: fluorescence anisotropy; no significant difference from d(TG*TTCA); FA: 50 mM Tris pH 8, 100 mM NaCl, 5 mM MgCl2, 1 mM TCEP, 50 nM 6FAM-oligo (salt series with KCl 50-150 mM); SEC same buffer; NMR: 50 mM Tris pH 7.5, 150 mM NaCl, 5 mM MgCl2, 10% D2O; temperature not stated. Conditions: protein: recombinant; chain copies: 2; label: 5'-6FAM; single strand. (Fluorescence polarisation rises when a labelled molecule tumbles more slowly, as on binding a larger partner.)

The target in data set [4] is T1, SAMHD1 HD domain WT. In words: fluorescence anisotropy; FA: 50 mM Tris pH 8, 100 mM NaCl, 5 mM MgCl2, 1 mM TCEP, 50 nM 6FAM-oligo (salt series with KCl 50-150 mM); SEC same buffer; NMR: 50 mM Tris pH 7.5, 150 mM NaCl, 5 mM MgCl2, 10% D2O; temperature not stated. Conditions: protein: recombinant; chain copies: 2; label: 5'-6FAM; single strand. The source holds these as a separate data set.

Data set [5] concerns the target SAMHD1 R352A (UniProt Q9Y3Z3 114-626, R352A). In words: size-exclusion chromatography; 50 uM GTP + 50 uM dTTP; 2-fold higher stoichiometry than D311A; FA: 50 mM Tris pH 8, 100 mM NaCl, 5 mM MgCl2, 1 mM TCEP, 50 nM 6FAM-oligo (salt series with KCl 50-150 mM); SEC same buffer; NMR: 50 mM Tris pH 7.5, 150 mM NaCl, 5 mM MgCl2, 10% D2O; temperature not stated. Conditions: protein: recombinant; chain copies: 2; label: 5'-6FAM; single strand.

The target in data set [6] is SAMHD1 K523A (UniProt Q9Y3Z3 114-626, K523A). The description is as above. Conditions: protein: recombinant; chain copies: 2; label: 5'-6FAM; single strand.
SAMHD1 K523A, sequence (Q9Y3Z3 114-626 K523A): as the sequence (Q9Y3Z3 114-626) above, with K410A counted along it
Data set [7] has as its target T1, SAMHD1 HD domain WT. Briefly: fluorescence anisotropy; tolerant to increasing salt (from 50 mM KCl); FA: 50 mM Tris pH 8, 100 mM NaCl, 5 mM MgCl2, 1 mM TCEP, 50 nM 6FAM-oligo (salt series with KCl 50-150 mM); SEC same buffer; NMR: 50 mM Tris pH 7.5, 150 mM NaCl, 5 mM MgCl2, 10% D2O; temperature not stated. The conditions noted are these: protein: recombinant; chain copies: 2; label: 5'-6FAM; single strand.

In data set [8] the target is SAMHD1 D311A (UniProt Q9Y3Z3 114-626, D311A). Briefly: analytical ultracentrifugation; no nucleotides; dimer, S ~6; FA: 50 mM Tris pH 8, 100 mM NaCl, 5 mM MgCl2, 1 mM TCEP, 50 nM 6FAM-oligo (salt series with KCl 50-150 mM); SEC same buffer; NMR: 50 mM Tris pH 7.5, 150 mM NaCl, 5 mM MgCl2, 10% D2O; temperature not stated. The conditions noted are these: protein: recombinant; chain copies: 2; label: 5'-6FAM; single strand.
SAMHD1 D311A, sequence (Q9Y3Z3 114-626 D311A): as the sequence (Q9Y3Z3 114-626) above, with D198A counted along it

SAMHD1 R352A, sequence (Q9Y3Z3 114-626 R352A): as the sequence (Q9Y3Z3 114-626) above, with R239A counted along it

With CTCCT (ssDNA, phosphorothioate?) [6FAM oligo with G replaced by T], in data set [1], the binding result is on record as “no binding”. On to CGCCU (ssRNA) [r(CGCCU)], for which the binding result in data set [2] is recorded as “binds”. As to UGUUCA (ssRNA, phosphorothioate after G2, mixed Rp/Sp) [6FAM-r(UG*UUCA)], in data set [3], the binding result is “binds”. As for TGTTCA (ssDNA, phosphorothioate after G2, pure Sp) [6FAM-d(TG*TTCA) Sp], in data set [4], the binding signal is ~0.1 affinity relative to Rp. Still for that read-out and setting: the value for TGTTCA (ssDNA, phosphorothioate after G2, pure Rp) [6FAM-d(TG*TTCA) Rp] was ~10 fold higher affinity than Sp. As for CGCCT (ssDNA, phosphorothioate at linkages 1-4, mixed Rp/Sp) [6FAM-d(C*G*C*C*T)], the binding result in data set [5], in data set [6], in data set [7] and in data set [8] was “binds” each time.

With CGCCU (ssRNA, phosphorothioate at linkages 1-4, mixed Rp/Sp) [6FAM-r(C*G*C*C*U)], the binding result in data set [7] is on record as “binds”. Take CACCT (ssDNA, phosphorothioate?) [6FAM oligo with G replaced by A]: the binding result in data set [1] is reported as “no binding”. As to CGCCT (ssDNA, phosphorothioate at linkages 1-4, mixed Rp/Sp) [d(C*G*C*C*T)], the binding result in data set [2] is reported as “binds”.
